Here are results for eleven molecules from patent publication US7811578B2, “Soluble chimeric peptide inhibitors of HIV entry comprising an IZ trimeric coiled-coil peptide and HIV gp41 N-helix coiled-coil peptide” (Whitehead Institute for Biomedical Research, dated 2010).

In assay [1] the target is HIV gp41 on HIV modified to contain a luciferase reporter gene (HIV, strain not stated).
The target in assay [2] is HIV-1 HXB2 gp41 (from the HXB2 gp160 gene), on single-round luciferase virus (HIV-1 (HXB2)) (UniProt P04578).
In assay [3] the target is gp160 (precursor protein to gp120/gp41) on CHO cells (HIV, strain not stated).
Assay [4] deals with HIV-1 HXB2 gp41 (from the HXB2 gp160 gene), on single-round luciferase virus (HIV-1 (HXB2), UniProt P04578). Description: cell-based or functional assay.

GCN4-pIQI (peptide) showed an inhibition of luciferase activity (viral fusion experiment) in assay [1] above 10 µM.
In the case of IQN17 (G572D) (designed binder), the IC50 (nm), viral infectivity (HIV luciferase assay) in assay [2] was found to be 20000 nM.
In turn, IQN17 (designed binder) registered an IC50, inhibition of luciferase activity (viral fusion experiment) in assay [1] of 250 nM. Further, in assay [3], the IC50, inhibition of syncytia formation (cell/cell fusion, β-galactosidase) fell in the range of 20 to 80 nM.

B1: N17 (peptide)
peptide: Ac-LLQLTVWGIKQLQARIL-NH2
As to B1, the “IC50 (nm), viral infectivity (HIV luciferase assay)” value (“IC50 (nm), viral infectivity” below) in assay [4] was around 10000 nM.

B2: IQN17 (designed binder)
chain: Ac-RMKQIEDKIEEIESKQKKIENEIARIKKLLQLTVWGIKQLQARIL-NH2
Take B2: in assay [4], the “IC50 (nm), viral infectivity” value was around 180 nM.

B3: II15N17 (designed binder)
chain: Ac-KIKKIENEIARIKKLLQLTVWGIKQLQARIL-NH2
Take B3: in assay [4], the “IC50 (nm), viral infectivity” value was around 3000 nM.

B4: IQ22N17 (designed binder)
chain: Ac-KIEEIESKQKKIENEIARIKKLLQLTVWGIKQLQARIL-NH2
B4: in assay [4], the “IC50 (nm), viral infectivity” value was around 1000 nM.

B5: II22N17 (designed binder)
chain: Ac-KIEEIESKIKKIENEIARIKKLLQLTVWGIKQLQARIL-NH2
Take B5: the “IC50 (nm), viral infectivity” value in assay [4] was around 170 nM.

B6: IQ15N17 (designed binder)
chain: Ac-KQKKIENEIARIKKLLQLTVWGIKQLQARIL-NH2
B6: the “IC50 (nm), viral infectivity” value in assay [4] was around 10000 nM.

B7: IZN17 (designed binder)
chain: Ac-IKKEIEAIKKEQEAIKKKIEAIEKLLQLTVWGIKQLQARIL-NH2
Turning to B7, the “IC50 (nm), viral infectivity” value in assay [4] was 5.6 nM.

B8: IQN23 version 2 (designed binder)
chain: Ac-RMKQIEDKIEEIESKQKKIENEIARIKKLIEAQQHLLQLTVWGIKQLQARIL-NH2
B8: the “IC50 (nm), viral infectivity” value in assay [4] was around 30 nM.
